± gives the uncertainty stated by the source.
Test: self-splicing fitness, log relative to wild type (ln ratio); higher = more splicing; Tetrahymena group I intron in knt gene, E. coli kanamycin selection, DiMSum; sequences stand for … in CUCUCU…GGAGGGAAAAGUUAUCAGGCAUGCACCUGGUAGCUAGUCUUUAAACCAAUAGAUUGCAUCGGUUUAAAAGGCAAGACCGUCAAAUUGCGGGAAAGGGGUCAACAGCCGUUCAGUACCAAGUCUCAGGGGAAACUUUGAGAUGGCCUUGCAAAGGGUAUGGUAAUAAGCUGACGGACAUGGUCCUAACCACGCAGCCAAGUCCUAAGUCAACAGAUCUUCUGUUGAUAUGGAUGCAGUUCACAGACUAAAUGUCGGUCGGGGAAGAUGUAUUCUUCUCAUAAGAUAUAGUCGGACCUCUCCUUAAUGGGAGCUAGCGGAUGAAGUGAUGCAACACUGGAGCCGCUGGGAACUAAUUUGUAUGCGAAAGUAUAUUGAUUAGUUUUGGAGUACUCGUGGUCG
How it was run: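 Fitness was computed with DiMSum as the error-weighted combination of replicate fold changes, kanamycin versus none, each normalised to wild type. The library randomised all eight intron nucleotides of the P1ex region, with the intron placed in the knt kanamycin-resistance gene on pET-22b(+) in E. coli BL21(DE3). Six replicate transformations were grown overnight at 37°C or 30°C on LB agar with or without 25 μg/mL kanamycin, plus 100 μg/mL carbenicillin, 50 μM IPTG and 0.2% rhamnose. Pooled colonies were amplicon-sequenced on an Illumina HiSeq 2500.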

Sequence | self-splicing fitness (ln) (30 °C) | self-splicing fitness (ln) (37 °C)
CUGCAGCAAUAUUACGCGGG | -3.94 ± 0.23 | -1.65 ± 0.18
AAUCAGCAAUAUUACGUGAC | -1.81 ± 0.085 | -1.72 ± 0.12
AUACAGCAAUAUUACGCCAU | -2.01 ± 0.13 | -0.757 ± 0.14
GGAAAGCAAUAUUACGGAAA | -2.04 ± 0.22 | -1.25 ± 0.24
UUAUAGCAAUAUUACGGGGA | -1.89 ± 0.13 | -1.38 ± 0.15
GUUUAGCAAUAUUACGCCCA | -1.48 ± 0.19 | -0.953 ± 0.33
UAGCAGCAAUAUUACGGACG | -0.528 ± 0.08 | -0.837 ± 0.1
ACAUAGCAAUAUUACGCUUA | -1.76 ± 0.19 | -1.55 ± 0.17
CACGAGCAAUAUUACGCCAG | -3.4 ± 0.27 | -2.95 ± 0.28
GGAGAGCAAUAUUACGCAAA | -3.82 ± 0.43 | 
CUAUAGCAAUAUUACGGCGA |  | -0.914 ± 0.47
UCACAGCAAUAUUACGCGAA | -1.74 ± 0.086 | -0.538 ± 0.091
GACUAGCAAUAUUACGUACG | -0.653 ± 0.066 | -0.585 ± 0.098
GCAUAGCAAUAUUACGGGGU | -3.74 ± 0.23 | -1.99 ± 0.13
GCAUAGCAAUAUUACGUACU | -0.89 ± 0.07 | -0.056 ± 0.079
ACGGAGCAAUAUUACGUCUG | -1.94 ± 0.19 | 0.013 ± 0.14
CGGCAGCAAUAUUACGAGGA | -4.01 ± 0.43 | -2.28 ± 0.26
GGCGAGCAAUAUUACGAUUG | -2.49 ± 0.13 | -2.05 ± 0.2
CAGCAGCAAUAUUACGACAG | -0.416 ± 0.073 | 0.533 ± 0.1
UAUCAGCAAUAUUACGUCCA | -0.388 ± 0.12 | -0.0388 ± 0.13
CUAAAGCAAUAUUACGUGCU | -2.89 ± 0.14 | -2.75 ± 0.25
UUUCAGCAAUAUUACGCCCG | -0.734 ± 0.22 | 0.939 ± 0.3
UUCUAGCAAUAUUACGGAAC | -3.74 ± 0.43 | -1.86 ± 0.3
AGUGAGCAAUAUUACGGUGA | -3.03 ± 0.31 | -2.96 ± 0.3
CCGUAGCAAUAUUACGUCUC | -3.43 ± 0.21 | -3.67 ± 0.31
GUGCAGCAAUAUUACGCAUG | -3.11 ± 0.29 | -0.586 ± 0.16

Sequence | self-splicing fitness (ln) (30 °C) | self-splicing fitness (ln) (37 °C)
GUCCAGCAAUAUUACGAGUA | -2.36 ± 0.16 | -0.787 ± 0.12
AUGUAGCAAUAUUACGCACG | -1.02 ± 0.11 | 0.147 ± 0.14
CGCAAGCAAUAUUACGCCCU | -0.736 ± 0.085 | 0.327 ± 0.12
ACUGAGCAAUAUUACGAGAG | -3.31 ± 0.18 | -3.34 ± 0.32
CAGAAGCAAUAUUACGAAUA | -2.43 ± 0.27 | -1.84 ± 0.24
AUCGAGCAAUAUUACGAGGA | -1.16 ± 0.4 | -2.07 ± 0.31
CUAAAGCAAUAUUACGGGUC | -3.75 ± 0.21 | -3.33 ± 0.37
GCGGAGCAAUAUUACGAACA | -2.71 ± 0.45 | -2.78 ± 0.43
CAGAAGCAAUAUUACGAGCA |  | -1.3 ± 0.38
AUAUAGCAAUAUUACGAGAA | -1.72 ± 0.34 | -0.73 ± 0.36
GCACAGCAAUAUUACGAACC | -0.135 ± 0.15 | 0.621 ± 0.18
GAAAAGCAAUAUUACGUGGC | -3.57 ± 0.2 | -2.06 ± 0.16
UUCGAGCAAUAUUACGGGUU | -3.21 ± 0.22 | -2.78 ± 0.35
UAGUAGCAAUAUUACGGCGA | -1.17 ± 0.17 | -0.54 ± 0.17
AGAUAGCAAUAUUACGGUCU | -2 ± 0.17 | -2.8 ± 0.22
CAUGAGCAAUAUUACGUGUU | -3.85 ± 0.16 | -2.31 ± 0.15
CCAAAGCAAUAUUACGACGC | -3.71 ± 0.35 | 
CCACAGCAAUAUUACGCUGU | -4.34 ± 0.18 | -3.31 ± 0.27
CUAAAGCAAUAUUACGGGAU | -1.86 ± 0.087 | -0.984 ± 0.12
CGGCAGCAAUAUUACGCGAC | -4.41 ± 0.42 | -1.36 ± 0.18
ACCGAGCAAUAUUACGCGAC |  | -2.66 ± 0.44
CUCAAGCAAUAUUACGUCCG | -2.08 ± 0.12 | -1.38 ± 0.13
AUGGAGCAAUAUUACGUCUG | -2.81 ± 0.24 | -2.04 ± 0.25
GCAUAGCAAUAUUACGAAGU | -3.88 ± 0.28 | 
GGACAGCAAUAUUACGUGAC | -1.07 ± 0.081 | -1.23 ± 0.13
UAUCAGCAAUAUUACGCAGU | -2.62 ± 0.13 | -0.577 ± 0.11

Sequence | self-splicing fitness (ln) (30 °C) | self-splicing fitness (ln) (37 °C)
GCUAAGCAAUAUUACGGUAC | -1.47 ± 0.1 | -1.65 ± 0.2
CUAUAGCAAUAUUACGGUCU | -4.51 ± 0.36 | -2.14 ± 0.29
UGUCAGCAAUAUUACGAUAG | -0.276 ± 0.072 | 0.347 ± 0.088
UUAAAGCAAUAUUACGACCU | -0.0595 ± 0.074 | 0.121 ± 0.1
AACGAGCAAUAUUACGUCCG |  | -2.07 ± 0.29
GAUAAGCAAUAUUACGUCAG | -4.56 ± 0.32 | -2.5 ± 0.23
CGCCAGCAAUAUUACGGGGA | -3.02 ± 0.22 | -3.06 ± 0.27
GUUGAGCAAUAUUACGGGUG | -3.62 ± 0.38 | -2.85 ± 0.47
AAGCAGCAAUAUUACGCACA | -0.331 ± 0.082 | 0.0315 ± 0.11
UAGGAGCAAUAUUACGUAUU | -1.97 ± 0.36 | -2.45 ± 0.41
GCUUAGCAAUAUUACGCGGA | -1.32 ± 0.071 | -0.345 ± 0.071
AGAUAGCAAUAUUACGGUAC | -3.91 ± 0.28 | -2.42 ± 0.22
AUAGAGCAAUAUUACGUUUA | -0.804 ± 0.13 | -0.629 ± 0.14
AAAUAGCAAUAUUACGCUGC | -2.73 ± 0.2 | -1.86 ± 0.41
GUAUAGCAAUAUUACGCCCC | -1.21 ± 0.2 | -0.594 ± 0.29
AGGGAGCAAUAUUACGGGGA | -3.29 ± 0.34 | -2.64 ± 0.48
CUCUAGCAAUAUUACGCAGU | -4.21 ± 0.24 | -4.07 ± 0.23
ACGCAGCAAUAUUACGCAAG | -2.25 ± 0.081 | -0.638 ± 0.091
GCCCAGCAAUAUUACGUAGA | -0.69 ± 0.052 | 0.0571 ± 0.064
CACGAGCAAUAUUACGCCAC | -2.97 ± 0.38 | -1.02 ± 0.34
GCUAAGCAAUAUUACGAAGA | -0.925 ± 0.087 | -0.138 ± 0.098
AAGAAGCAAUAUUACGAGUG | -2.04 ± 0.12 | -1.23 ± 0.13
CACCAGCAAUAUUACGUACA | -3.16 ± 0.17 | -1.59 ± 0.13
AAUCAGCAAUAUUACGUUCA | -1.2 ± 0.091 | -0.527 ± 0.11
AUCUAGCAAUAUUACGGAGU | -2.61 ± 0.28 | -1.52 ± 0.2
CUUUAGCAAUAUUACGUGGU | -2.28 ± 0.25 | -2.8 ± 0.26

Source: the supplement of paper PMC7877785
